# Measured values taken from patent US9446124B2, “Targeting of bone marrow neovasculature” (Philogen S.P.A., priority 2009, dated 2016).
# Entries after “also recorded” stand apart in the source; their conditions may differ.
# B1: 4A1-F16-SIP: human monoclonal mini-immunoglobulin specific to the A1 domain of tenascin-C; sequence SEQ ID NO:25 (protein)
# chain: EVQLLESGGGLVQPGGSLRLSCAASGFTFSRYGMSWVRQAPGKGLEWVSAISGSGGSTYYADSVKGRFTISRDNSKNTLYLQMNSLRAEDTAVYYCAKAHNAFDYWGQGTLVTVSRGGGSGGGSGGSSELTQDPAVSVALGQTVRITCQGDSLRSYYASWYQQKPGQAPVLVIYGKNNRPSGIPDRFSGSSSGNTASLTITGAQAEDEADYYCNSSVYTMPPVVFGGGTKLTVLSGGSGGPRAAPEVYAFATPEWPGSRDKRTLACLIQNFMPEDISVQWLHNEVQLPDARHSTTQPRKTKGSGFFVFSRLEVTRAEWEQKDEFICRAVHEAASPSQTVQRAVSVNPESSRRGGC
# modifications: Synthetic sequence 4A1-F16-SIP amino acid sequence
# B2: F8-SIP (V5L/K18R): human monoclonal mini-immunoglobulin specific to the alternatively spliced EDA domain of fibronectin; sequence SEQ ID NO:26 (protein)
# chain: EVQLLESGGGLVQPGGSLRLSCAASGFTFSLFTMSWVRQAPGKGLEWVSAISGSGGSTYYADSVKGRFTISRDNSKNTLYLQMNSLRAEDTAVYYCAKSTHLYLFDYWGQGTLVTVSSGGGGSGGGSGGGGGEIVLTQSPGTLSLSPGERATLSCRASQSVSMPFLAWYQQKPGQAPRLLIYGASSRATGIPDRFSGSGSGTDFTLTISRLEPEDFAVYYCQQMRGRPPTFGQGTKVEIKSGGSGGPRAAPEVYAFATPEWPGSRDKRTLACLIQNFMPEDISVQWLHNEVQLPDARHSTTQPRKTKGSGFFVFSRLEVTRAEWEQKDEFICRAVHEAASPSQTVQRAVSVNPESSRRGGC
# modifications: Synthetic sequence F8-SIP (V5L/K18R) amino acid sequence
# Key:
# [1] = system: target tumour cells and endothelial cells; settings: acts on microtubuli; literature references; cited from earlier work
# [2] = system: areas of bone marrow from AML patients with high blast densities; test: Multicolour immunofluorescence of AML bone marrow (co-localization with vWF); assay type: binding, human; settings: biotinylated SIP, 2 μg/mL
# Description: Biotinylated antibodies were used in small immunoprotein format (SIP) under identical conditions (2 μg/ml). Aliquots were prepared from a single batch of antibodies, frozen and used only once to ensure reproducibility of immunohistochemical stainings.
# Sections of 10 μm thickness were fixed in chilled acetone and blocked with 20% fetal calf serum in PBS. Biotinylated F8-SIP (V5L/K18R) and 4A1-F16-SIP were added onto the sections in a final concentration of 2 μg/mL in 3% bovine serum albumin (BSA)/PBS solution and incubated for one hour. Mouse anti-human vWF (von Willebrandt factor) was used to outline endothelial cells. After washing in PBS, bound primary antibodies were detected with Streptavidin-Alexa Fluor 488 and anti-mouse IgG Alexa Fluor 594 (Invitrogen) were used as secondary antibodies. Nuclei were counterstained with DAPI and images were captured on an Axioskop 2 Mot plus microscope equipped with an AxioCam MRc camera (Zeiss). Human
# healthy bone marrow = test: Immunohistochemistry of healthy bone marrow from HL-60 xenografted mice; assay type: binding, nude mice; settings: biotinylated SIP, 2 μg/ml; bone marrow of the same HL-60 xenografted mice; FIG. 4B
# Description: (§1) For immunohistochemistry, biotinylated antibodies were used in small immunoprotein format (SIP) under identical conditions (2 μg/ml). Aliquots were prepared from a single batch of antibodies, frozen and used only once to ensure reproducibility of immunohistochemical stainings. Frozen tissue samples were stored at −80° C. Sections of 10 μm thickness were fixed in chilled acetone, rehydrated in TBS buffer (50 mM Tris, 100 mM NaCl, 0.001% Aprotinin, pH 7.4) and blocked with 20% fetal calf serum in TBS. The antibodies were added onto the sections in a final concentration of 2 μg/mL in 3% bovine serum albumin (BSA)/TBS solution and incubated for one hour. After washing in TBS, bound antibodies were detected with streptavidin-biotinylated alkaline phosphatase complex (Biospa, Milan, Italy) in TBS 3% BSA+2 mM MgCl2. The Fast Red substrate (Sigma) was used for detection of phosphatase activity. Sections were counterstained with Gill's hematoxylin No. 2 (Sigma) and mounted with Glycergel mounting medium (Dako, Glostrup, Denmark).
# The mouse model for human leukaemia used here was previously described in Potter et al. (1984). Specifically, nude mice were xenografted with cells from the HL-60 leukaemia cell line and, after development of HL-60 tumours (granulocytic sarcomas), samples were obtained both from said tumours and from the bone marrow of the mice. […]
# [3] = system: vessels of HL-60 tumour (granulocytic sarcoma) sections; test: Immunohistochemistry of HL-60 tumours from human leukaemia mouse model; assay type: binding; settings: biotinylated SIP, 2 μg/ml, HL-60 xenograft in nude mice, FIG. 4A
# Description: as §1
# The mouse model for human leukaemia used here was previously described in Potter et al. (1984). Specifically, nude mice were xenografted with cells from the HL-60 leukaemia cell line and, after development of HL-60 tumours (granulocytic sarcomas), samples were obtained both from said tumours and from the bone marrow of the mice.
# Immunohistochemistry studies were then performed as described under “immunohistochemistry” above.
# [4] = system: blood vessels present in the bone marrow biopsies of patients with extramedullary AML; test: Immunohistochemistry of bone marrow biopsies from patients with extramedullary AML; assay type: binding, human; settings: biotinylated antibody in SIP format, 2 μg/ml; two patients; FIG. 3
# Description: (§2) Immunohistochemistry and immunofluorescence analysis were performed on freshly frozen bone marrow biopsies of patients with acute myeloid leukaemia.
# as §1
# [5] = system: blood vessels in the bone marrow of AML patients; test: Immunohistochemistry of bone marrow biopsies from AML patients; assay type: binding, human; settings: biotinylated antibody in SIP format, 2 μg/ml, frozen 10 μm sections; FIG. 2
# Description: as §2, §1
Molecule,concentration range capable of killing target tumour cells and endothelial cells [1],co-localization with antibodies specific for von Willebrand Factor (vWF) [2],staining of healthy bone marrow sections (healthy bone marrow),staining of vessels in HL-60 tumour sections [3],staining of vessels in HL-60 tumour sections ([3]; listed as 4A1-F16 SIP),staining of blood vessels in bone marrow biopsies of extramedullary AML patients [4],staining of blood vessels in bone marrow biopsies of AML patients [5]
CC[C@]1(O)C[C@H]2CN(CCc3c([nH]c4ccccc34)[C@@](C(=O)OC)(c3cc4c(cc3OC)N(C)[C@H]3[C@@](O)(C(=O)NN)[C@H](O)[C@]5(CC)C=CCN6CC[C@]43[C@@H]65)C2)C1 [4-desacetyl-3-vinblastine monohydrazide],picomolar concentration range,–,–,–,–,–,–
cemadotin,picomolar concentration range,–,–,–,–,–,–
B1,–,excellent co-localization,no staining was visible,strongly stained the vessels of the HL-60 tumour sections,strongly stained the vessels present in the HL-60 tumour (granulocytic sarcoma) sections,strongly stained the blood vessels present in the bone marrow biopsies in both cases,strongly stained the blood vessels present in the bone marrow biopsy; also recorded: capable of staining the vast majority of blood vessels
B2,–,–,no staining was visible,strongly stained the vessels of the HL-60 tumour sections; also recorded: strongly stained the vessels present in the HL-60 tumour (granulocytic sarcoma) sections,–,also visible and was either similar or slightly weaker than the level of staining observed with 4A1-F16-SIP,"also visible, although the level of staining was weaker than that observed with 4A1-F16-SIP; also recorded: stained a large proportion of these blood vessels but fewer than observed with the 4A1-F16-SIP antibody"
